This note sets out measurements from patent publication US20100196361A1, “Method of inhibition of vascular development using an antibody” (DYAX CORP., priority 2003, published 2010).

T1: Tie1-EpoR chimeric receptor (UniProt P14753+P35590)
T1 construct: PCR amplified extracellular part of human Tie1 (bp 37-2316 of X60975); expressed in transfected cells
T1 sequence (P35590+P14753 with tags, fused parts or gaps): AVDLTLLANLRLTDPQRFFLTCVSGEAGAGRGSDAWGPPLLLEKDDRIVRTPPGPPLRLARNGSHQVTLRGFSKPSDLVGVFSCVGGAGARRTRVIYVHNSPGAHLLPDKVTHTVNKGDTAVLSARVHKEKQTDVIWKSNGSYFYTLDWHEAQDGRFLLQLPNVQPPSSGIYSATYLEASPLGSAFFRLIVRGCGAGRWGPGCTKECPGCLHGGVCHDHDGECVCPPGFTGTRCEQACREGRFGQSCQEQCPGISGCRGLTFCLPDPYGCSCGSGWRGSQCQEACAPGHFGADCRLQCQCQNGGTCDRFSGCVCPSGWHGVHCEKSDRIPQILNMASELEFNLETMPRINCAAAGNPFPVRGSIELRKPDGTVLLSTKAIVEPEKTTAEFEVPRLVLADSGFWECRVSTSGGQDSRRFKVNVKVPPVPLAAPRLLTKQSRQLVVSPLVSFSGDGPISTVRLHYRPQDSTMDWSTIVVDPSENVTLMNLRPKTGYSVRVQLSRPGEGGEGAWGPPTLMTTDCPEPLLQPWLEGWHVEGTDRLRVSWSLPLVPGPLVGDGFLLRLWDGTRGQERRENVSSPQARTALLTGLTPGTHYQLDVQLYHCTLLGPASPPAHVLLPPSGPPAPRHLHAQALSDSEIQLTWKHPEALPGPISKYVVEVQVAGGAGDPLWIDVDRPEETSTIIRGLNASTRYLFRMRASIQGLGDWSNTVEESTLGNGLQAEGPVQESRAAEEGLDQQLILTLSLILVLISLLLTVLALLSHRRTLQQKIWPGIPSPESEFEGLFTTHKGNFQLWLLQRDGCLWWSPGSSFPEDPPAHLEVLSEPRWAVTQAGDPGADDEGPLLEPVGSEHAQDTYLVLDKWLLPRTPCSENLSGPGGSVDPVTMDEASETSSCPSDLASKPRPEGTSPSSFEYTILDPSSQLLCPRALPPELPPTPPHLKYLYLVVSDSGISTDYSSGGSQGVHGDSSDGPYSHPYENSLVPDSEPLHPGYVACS

B1: M0056G08: Tie1-binding antibody; LC SEQ ID NO:568, HC SEQ ID NO:570 (antibody, V domains shown)
VH: EVQLLESGGGLVQPGGSLRLSCAASGFTFSHYGMWWVRQAPGKGLEWVSVISPSGGQTNYADSVKGRFTISRDNSKNTLYLQMNSLRAEDTAVYYCAKGQIHGGNLASWGQGTLVTVSS
VL: QDIQMTQSPGTLSLSPGERATLSCRASQSISSSYLAWYQQKPGQAPRLLLYGTSNRATGIPDRFSGSGSGTDFTLTISRLEPEDFALYYCQQRYKWPLTFGPGTKVDFK
modifications: Antibody
B2: M0045B03: Tie1-binding antibody; LC SEQ ID NO:260, HC SEQ ID NO:262 (antibody, V domains shown)
VH: EVQLLESGGGLVQPGGSLRLSCAASGFTFSQYPMIWVRQAPGKGLEWVSVISPSGGHTSYADSVKGRFTISRDNSKNTLYLQMNSLRAEDTAVYYCARIQYYGGAFDIWGQGKMVTVSS
VL: QDIQMTQSPDTLSLSPGERATLSCRASQSISRYLAWYQQRPGQAPSLLIYDASERAAGIPARFSGSGSGTDFTLTISSLEPEDFAVYYCQQRGNWPLTFGGGTKVDIR
modifications: Antibody
B3: M0044B08: Tie1-binding antibody; LC SEQ ID NO:180, HC SEQ ID NO:182 (antibody, V domains shown)
VH: EVQLLESGGGLVQPGGSLRLSCAASGFTFSAYGMGWVRQAPGKGLEWVSVISPSGGQTSYADSVKGRFTISRDNSKNTLYLQMNSLRAEDTALYYCAGGDRYGPLHYWGQGTLVTVSS
VL: QDIQMTQSPSFLSASVGDRVTISCRASQYISIYLNWYQQRPGEAPKLLINAASSLQSGDPSRFSGSGSGTDFTLTINSLQPDDFATYYCQQYKSYPLTFGEGTKVEIK
modifications: Antibody
B4: M0053F04: Tie1-binding antibody; LC SEQ ID NO:392, HC SEQ ID NO:394 (antibody, V domains shown)
VH: EVQLLESGGGLVQPGGSLRLSCAASGFTFSGYGMYWVRQAPGKGLEWVSVISPSGGYTHYADSVKGRFTISRDNSKNTLYLQMNSLRAEDTAVYYCARAYSSGWYLDYWGQGTLVTVSS
VL: QDIQMTQSPATLSLSPGERATLSCRASQSVSSYLAWYQQKPGQAPRLLIYDTSNRATGIPARFSGSGSGTDFTLTISSLEPEDFAVYYCQQRSNWPITFGQGTRLEIK
modifications: Antibody
B5: P-B3: anti-Tie1 antibody clone; variable domains in FIGS. 12A and 12B (antibody, V domains shown)
VH: EVQLLESGGGLVQPGGSLRLSCAASGFTFSRYGMHWVRQAPGKGLEWVSVISPSGGMTYYADSVKGRFTISRDNTKNTLYLQMNSLRAEDTAVYYCARVGATGPFDIWGQGTMVTVSSASTKGPSVFPLAP
VL: QDIQMTQSPATLSLSPGERATLSCRASQSVSTYLAWYQQKPGQAPRLLIYDASNRATGIPGRFSGSGSGTDFTLTISSLEAEDFAVYYCQQRSSWPITFGQG
B6: P-C6: anti-Tie1 antibody clone; variable domains in FIGS. 13A and 13B (antibody, V domains shown)
VH: EVQLLESGGGLVQPGGSLRLSCAASGFTFSHYGMTWVRQAPGKGLEWVSVISPSGGQTGYADSVKGRFTISRDNSKNTLYLQMNSLRAEDTAVYYCAGGGYAAFDYWGQGTLVTVSSASTKGPSVFPLAPSSKSTSGGTAALG
VL: QDIQMTQSPATLSLSPGERATLSCRASQSVSSYLAWYQQKPGQAPRLLIYDASNRATGIPARFSGSGSGTDFTLTISSLEPEDFAVYYCQQRSNWPLTFGGG
B7: A2: anti-Tie1 antibody clone; variable domains in FIGS. 20A and 20B (antibody, V domains shown)
VH: EVQLLESGGGLVQPGGSLRLSCAASGFTFSRYTMMWVRQAPGKGLEWVSGIYPSGGVTLYADSVKGRFTISRDNSKNTLYLQMNSLRAEDTAVYYCARVNYYDSSGYGPIAPGLDYWGQGTLVTVSSASTKGPSVFP
VL: HSAQDIQMTQSPGTLSLSPGERATLSCRASRSVIISYVAWYQQKPGQAPRLLIYGASTRATGIPDRFSGSGSGTDFTLTISRLEPEDFAVYFCQLYGRSPRIIFGQGTRLEIK
B8: A10: anti-Tie1 antibody clone; variable domains in FIGS. 21A and 21B (antibody, V domains shown)
VH: EVQLLESGGGLVQPGGSLRLSCAASGFTFSNYVMVWVRQAPGKGLEWVSGIYPSGGHTKYADSVKGRFTISRDNSKNTLYLQMNSLRAEDTAVYYCARVNYYDSSGYGPIAPGLDYWGQGTLV
VL: HSAQDIQMTQSPGTLSLSPGERATLFCRASQRVTSNSLAWYQQRPGQAPRLLIYDASTRATGIPDRFSGSGSGRDFTLTISRLEPEDFAVYYCQRYGSSVLYSFGQGTKLEIT
B9: P-B1: anti-Tie1 antibody clone; variable domains in FIGS. 11A and 11B (antibody, V domains shown)
VH: EVQLLESGGGLVQPGGSLRLSCAASGFTFSRYPMVWVRQAPGKGLEWVSVISPSGGQTFYADSVKGRFTISRDNSKNTLYLQMNSLRAEDTAVYYCARGVLTTAFDIWGQGTMVTVSSASTKGPSVFPLAPSSK
VL: QDIQMTQSPSSLSASVGDRVTITCRASQNINSYLNWYQQKPGQAPKLLIYAASNLETAVPSRFSGSGSGTDFTLTISSLQPEDFATYYCQQFNTYPLTFGGG
B10: C7: anti-Tie1 antibody clone; variable domains in FIGS. 25A and 25B (antibody, V domains shown)
VH: EVQLLESGGGLVQPGGSLRLSCAASGFTFSRYVMYWVRQAPGKGLEWVSVIYPSGGATYYADSVKGRFTISRDNSKNTLYLQMNSLRAEDTAVYYCARRGSSGAFDYWGQGTLVTVSSASTKGPSVFP
VL: HSAQSVLTQPASVSGSPGQSITISCTGTSSDIGRYNYASWYQQRPGKSPKLLIYEVSDRPSGVSNRFSGSKSGNTASLIISGLQAEDEADYYCSSYSSTNSLQVVFGGGTKLSVLGQPKAAPSVTLFPPSSEELQANKATLVCL

Chain of Tie1 (P35590 22-1138): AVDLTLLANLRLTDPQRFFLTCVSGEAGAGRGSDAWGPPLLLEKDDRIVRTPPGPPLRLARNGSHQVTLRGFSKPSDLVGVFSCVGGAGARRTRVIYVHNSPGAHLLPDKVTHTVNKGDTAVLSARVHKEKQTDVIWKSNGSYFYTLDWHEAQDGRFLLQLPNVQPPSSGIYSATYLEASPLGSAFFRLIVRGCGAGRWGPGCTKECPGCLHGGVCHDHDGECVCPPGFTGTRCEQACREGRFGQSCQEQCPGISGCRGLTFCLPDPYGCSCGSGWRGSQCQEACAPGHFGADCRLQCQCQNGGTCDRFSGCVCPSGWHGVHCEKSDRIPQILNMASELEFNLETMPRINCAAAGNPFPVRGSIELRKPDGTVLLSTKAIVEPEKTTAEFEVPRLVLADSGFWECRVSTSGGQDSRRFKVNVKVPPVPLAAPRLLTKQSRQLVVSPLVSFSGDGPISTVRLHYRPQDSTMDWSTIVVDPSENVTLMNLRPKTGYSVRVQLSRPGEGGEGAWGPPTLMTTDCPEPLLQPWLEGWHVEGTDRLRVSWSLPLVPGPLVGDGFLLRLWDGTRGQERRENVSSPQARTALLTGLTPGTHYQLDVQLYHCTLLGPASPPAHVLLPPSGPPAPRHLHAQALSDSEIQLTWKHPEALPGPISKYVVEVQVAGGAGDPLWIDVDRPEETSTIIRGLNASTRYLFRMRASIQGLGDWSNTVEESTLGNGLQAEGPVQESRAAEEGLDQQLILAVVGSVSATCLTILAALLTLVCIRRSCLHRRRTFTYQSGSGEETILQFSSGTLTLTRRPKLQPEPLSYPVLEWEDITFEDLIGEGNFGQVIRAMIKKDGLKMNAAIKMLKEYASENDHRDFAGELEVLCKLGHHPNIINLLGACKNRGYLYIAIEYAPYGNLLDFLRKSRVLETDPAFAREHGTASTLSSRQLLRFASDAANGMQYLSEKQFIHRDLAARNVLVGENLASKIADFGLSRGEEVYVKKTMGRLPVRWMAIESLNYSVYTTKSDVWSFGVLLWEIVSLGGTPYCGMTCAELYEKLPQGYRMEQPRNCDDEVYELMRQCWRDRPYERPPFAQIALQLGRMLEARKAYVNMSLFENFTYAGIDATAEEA

One experiment has as its target Tie1 (Homo sapiens, UniProt P35590). In words: Competition with E3 for binding to Tie1.
Conditions: not given
Consider B1, for which the “competition with E3 for binding to Tie1” value is on record as “competes with E3 for binding to Tie1”.

As for B2, the “competition with E3 for binding to Tie1” value is given as “competes with E3 for binding to Tie1”.

As for B3, the “competition with E3 for binding to Tie1” value is “competes with E3 for binding to Tie1”.

For B4, the “competition with E3 for binding to Tie1” value is on record as “competes with E3 for binding to Tie1”.

Another experiment has as its target T1, Tie1-EpoR chimeric receptor. In words: BaF3 bioassay (Tie1/EpoR chimeric BaF3 cell assay). It counts as cell-based, human. Particulars: 100 ng/ml E3 IgG together with 100 (1:1) or 500 (1:5) ng/ml test antibody. The source says: BaF3 bioassay. To generate Tie1-EpoR expressing BaF3 cells for the bioassay, BaF3 pre-B cells were stably transfected with a nucleic acid that expresses chimeric receptor containing the extracellular domain of human Tie1 fused with the transmembrane and cytoplasmic domains of the mouse erythropoietin receptor. The nucleic acid used was a Tie1-EpoR chimeric cDNA in a pEF-BOS expression vector. The nucleic acid encoding the chimeric receptor was constructed by cloning the PCR amplified extracellular part of human Tie1 (bp 37-2316 of X60975) as EcoRI-BglII fragment into mEpoR-pcDNA vector. The cDNA encoding for the chimeric receptor consisting of the extracellular part of Tie1 fused with the transmembrane and intracellular domains of EpoR was subcloned into the pEF-BOS expression vector. Vector was linearized and co-transfected into BaF3 cells with pcDNA3.1(+) Zeo vector (Invitrogen). Stable cell pools were generated by selection with 250 μg/ml Zeocin. The expression of Tie1/EpoR fusion protein in several clones was analyzed by Western blotting with an antibody against EpoR.
To perform the assays, BaF3 cells expressing the Tie1-EpoR chimera were split in 96-well microtiter plates at 50 000 cells/well in the presence of the indicated concentrations of anti-Tie1 antibodies. The E3 antibody used in this study was the germ-lined E3 antibody (DX-2220). As controls, Zeocin resistant pools not expressing the Tie1-EpoR were used. After 48 h, the viability of the cells was determined by adding MTT (3-(4,5-dimethylthiazol-2-yl)-2,5-diphenyl tetrazolium bromide (Sigma), 0.5 mg/ml), followed by further 2 h of culture, addition of an equal volume of cell lysis solution (10% SDS, 10 mM HCl) and incubation overnight at 37° C. Absorbance was measured at 540 nm.
Stimulation and inhibition of Tie1 in Tie1-EpoR transfected BaF3 cells and human primary endothelial cells. Although no ligand for Tie1 has been identified, we used the following efficient screening method for Tie1-binding proteins. Interleukin-3 dependent pre-B-lymphocyte (BaF3) cells were transfected with a construct that expresses a Tie1-EpoR fusion protein. Since BaF3 cells are IL-3 dependent, they die unless IL-3 is provided. However, Tie-EpoR receptor expressing BaF3 cells can survive and proliferate if the medium contains a Tie1-binding protein, either a natural ligand or an artificial mimetic. Cell survival can be quantitated, e.g., by colorimetric MTT-assay, which measures mitochondrial activity.
To determine if any of the other monoclonal antibodies tested inhibit the survival effect of E3 IgG in Tie1-EpoR BaF3 assay, antibodies were studied in combination with E3 IgG. A concentration of 100 ng/ml of E3 IgG together with 100 (1:1) or 500 (1:5) ng/ml of the other antibodies were used and the viability of Tie1-EpoR cells was measured.
B5: the “effect on the survival effect of E3 IgG in Tie1-EpoR BaF3 assay” value (“effect on the survival effect of E3 IgG” for short) is “inhibited the viability effect of E3 IgG to some extent”.

B6: the “effect on the survival effect of E3 IgG” value is listed as “inhibited the viability effect of E3 IgG to some extent”.

As to B7, the “effect on the survival effect of E3 IgG” value is reported as “inhibited the viability effect of E3 IgG to some extent”.

Take B8: the “effect on the survival effect of E3 IgG” value was “inhibited the viability effect of E3 IgG to some extent”.

Consider B9, for which the “effect on the survival effect of E3 IgG” value is on record as “inhibited the viability effect of E3 IgG to some extent”.

As for B10, the “effect on the survival effect of E3 IgG” value is given as “promoted the survival of Tie1/EpoR BaF3 cells in combination with E3 IgG”.
